Laboratory results as given in PMC11143768, “Integrin-linked kinase-frizzled 7 interaction maintains cancer stem cells to drive platinum resistance in ovarian cancer” (Journal of Experimental & Clinical Cancer Research : CR, 2024).

Target: T1, recombinant human full length Fzd7 (human, UniProt O75084 33-574)
T1 construct: Frizzled 7 (Fzd7), human, recombinant full length; also called full-length recombinant Fzd7; source: recombinant
Assay: co-IP; recombinant human full length Fzd7 mixed in lysis buffer at 1:1 ratio with recombinant human full-length ILK, incubated overnight at 4 °C with anti-Fzd7 Ab; Western blot for ILK and Fzd7
Conditions: both partners purified

binding result: binds
B1: recombinant human full-length ILK (enzyme, UniProt Q13418 1-452, looked up)
chain: MDDIFTQCREGNAVAVRLWLDNTENDLNQGDDHGFSPLHWACREGRSAVVEMLIMRGARINVMNRGDDTPLHLAASHGHRDIVQKLLQYKADINAVNEHGNVPLHYACFWGQDQVAEDLVANGALVSICNKYGEMPVDKAKAPLRELLRERAEKMGQNLNRIPYKDTFWKGTTRTRPRNGTLNKHSGIDFKQLNFLTKLNENHSGELWKGRWQGNDIVVKVLKVRDWSTRKSRDFNEECPRLRIFSHPNVLPVLGACQSPPAPHPTLITHWMPYGSLYNVLHEGTNFVVDQSQAVKFALDMARGMAFLHTLEPLIPRHALNSRSVMIDEDMTARISMADVKFSFQCPGRMYAPAWVAPEALQKKPEDTNRRSADMWSFAVLLWELVTREVPFADLSNMEIGMKVALEGLRPTIPPGISPHVCKLMKICMNEDPAKRPKFDMIVPILEKMQDK
notes: Integrin-linked kinase (ILK), human, recombinant full length; also called full-length recombinant ILK; source: recombinant
